Data taken from IntAct's records for PubMed 19357306.

B1: Aurora kinase A (Homo sapiens), O14965 (parent)
chain: MDRSKENCISGPVKATAPVGGPKRVLVTQQFPCQNPLPVNSGQAQRVLCPSNSSQRIPLQAQKLVSSHKPVQNQKQKQLQATSVPHPVSRPLNNTQKSKQPLPSAPENNPEEELASKQKNEESKKRQWALEDFEIGRPLGKGKFGNVYLAREKQSKFILALKVLFKAQLEKAGVEHQLRREVEIQSHLRHPNILRLYGYFHDATRVYLILEYAPLGTVYRELQKLSKFDEQRTATYITELANALSYCHSKRVIHRDIKPENLLLGSAGELKIADFGWSVHAPSSRRTTLCGTLDYLPPEMIEGRMHDEKVDLWSLGVLCYEFLVGKPPFEANTYQETYKRISRVEFTFPDFVTEGARDLISRLLKHNPSQRPMLREVLEHPWITANSSKPSNCQNKESASKQS

Variants of: B1
Conditions: with ince_human INCENP

effect of a mutation on the interaction | Variant
disrupting interaction strength | MDRSKENCISGPVKATAPVGGPKRVLVTQQFPCQNPLPVNSGQAQRVLCPSNSSQRIPLQAQKLVSSHKPVQNQKQKQLQATSVPHPVSRPLNNTQKSKQPLPSAPENNPEEELASKQKNEESKKRQWALEDFEIGRPLGKGKFGNVYLAREKQSKFILALKVLFKAQLEKAGVEHQLRREVEIQSHLRHPNILRLYLYFHDATRVYLILEYAPLGTVYRELQKLSKFDEQRTATYITELANALSYCHSKRVIHRDIKPENLLLGSAGELKIADFGWSVHAPSSRRTTLCGTLDYLPPEMIEGRMHDEKVDLWSLGVLCYEFLVGKPPFEANTYQETYKRISRVEFTFPDFVTEGARDLISRLLKHNPSQRPMLREVLEHPWITANSSKPSNCQNKESASKQS [G198L]
disrupting interaction strength | MDRSKENCISGPVKATAPVGGPKRVLVTQQFPCQNPLPVNSGQAQRVLCPSNSSQRIPLQAQKLVSSHKPVQNQKQKQLQATSVPHPVSRPLNNTQKSKQPLPSAPENNPEEELASKQKNEESKKRQWALEDFEIGRPLGKGKFGNVYLAREKQSKFILALKVLFKAQLEKAGVEHQLRREVEIQSHLRHPNILRLYVYFHDATRVYLILEYAPLGTVYRELQKLSKFDEQRTATYITELANALSYCHSKRVIHRDIKPENLLLGSAGELKIADFGWSVHAPSSRRTTLCGTLDYLPPEMIEGRMHDEKVDLWSLGVLCYEFLVGKPPFEANTYQETYKRISRVEFTFPDFVTEGARDLISRLLKHNPSQRPMLREVLEHPWITANSSKPSNCQNKESASKQS [G198V]
disrupting interaction strength | MDRSKENCISGPVKATAPVGGPKRVLVTQQFPCQNPLPVNSGQAQRVLCPSNSSQRIPLQAQKLVSSHKPVQNQKQKQLQATSVPHPVSRPLNNTQKSKQPLPSAPENNPEEELASKQKNEESKKRQWALEDFEIGRPLGKGKFGNVYLAREKQSKFILALKVLFKAQLEKAGVEHQLRREVEIQSHLRHPNILRLYAYFHDATRVYLILEYAPLGTVYRELQKLSKFDEQRTATYITELANALSYCHSKRVIHRDIKPENLLLGSAGELKIADFGWSVHAPSSRRTTLCGTLDYLPPEMIEGRMHDEKVDLWSLGVLCYEFLVGKPPFEANTYQETYKRISRVEFTFPDFVTEGARDLISRLLKHNPSQRPMLREVLEHPWITANSSKPSNCQNKESASKQS [G198A]

Variants of: B1
Conditions: with tpx2_human TPX2, Q9ULW0
Chain of tpx2_human TPX2, Q9ULW0 (Q9ULW0 whole entry): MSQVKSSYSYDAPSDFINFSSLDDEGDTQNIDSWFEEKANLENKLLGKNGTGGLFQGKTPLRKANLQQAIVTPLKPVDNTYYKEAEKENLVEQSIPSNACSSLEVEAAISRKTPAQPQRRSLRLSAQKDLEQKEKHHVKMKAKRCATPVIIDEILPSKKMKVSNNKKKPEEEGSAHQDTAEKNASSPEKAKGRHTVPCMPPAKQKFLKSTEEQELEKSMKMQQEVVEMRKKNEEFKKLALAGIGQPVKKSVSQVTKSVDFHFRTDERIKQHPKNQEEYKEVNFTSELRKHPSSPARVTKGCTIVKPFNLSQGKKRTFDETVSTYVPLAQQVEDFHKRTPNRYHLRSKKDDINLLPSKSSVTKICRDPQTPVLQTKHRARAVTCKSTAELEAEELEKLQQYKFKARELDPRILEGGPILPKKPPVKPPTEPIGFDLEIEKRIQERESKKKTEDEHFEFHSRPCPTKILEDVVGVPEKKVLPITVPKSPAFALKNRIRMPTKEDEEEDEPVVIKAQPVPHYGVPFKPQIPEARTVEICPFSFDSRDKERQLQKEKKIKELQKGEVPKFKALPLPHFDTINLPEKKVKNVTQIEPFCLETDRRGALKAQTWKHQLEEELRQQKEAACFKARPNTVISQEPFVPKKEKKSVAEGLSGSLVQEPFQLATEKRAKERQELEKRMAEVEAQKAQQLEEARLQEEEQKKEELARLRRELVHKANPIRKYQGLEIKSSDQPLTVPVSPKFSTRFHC

effect of a mutation on the interaction | Variant
decreasing interaction | MDRSKENCISGPVKATAPVGGPKRVLVTQQFPCQNPLPVNSGQAQRVLCPSNSSQRIPLQAQKLVSSHKPVQNQKQKQLQATSVPHPVSRPLNNTQKSKQPLPSAPENNPEEELASKQKNEESKKRQWALEDFEIGRPLGKGKFGNVYLAREKQSKFILALKVLFKAQLEKAGVEHQLRREVEIQSHLRHPNILRLYNYFHDATRVYLILEYAPLGTVYRELQKLSKFDEQRTATYITELANALSYCHSKRVIHRDIKPENLLLGSAGELKIADFGWSVHAPSSRRTTLCGTLDYLPPEMIEGRMHDEKVDLWSLGVLCYEFLVGKPPFEANTYQETYKRISRVEFTFPDFVTEGARDLISRLLKHNPSQRPMLREVLEHPWITANSSKPSNCQNKESASKQS [G198N]
